Earlier results, collected in article PMC6389717.

Assays:
[1] = biological target: Lys39 (UniProt position 39, IMAVVKANAYG); test: kinetics; settings: enzyme-substrate complex (alanine-bound active site, external aldimine)
[2] = biological target: Asp38 (UniProt position 38, DATVEDPVGSE); test: kinetics (per the article's general statement only; no method given for this value); settings: presumed enzyme-substrate complex (general statement of the article); not given

Row | Substance | pKa [1] | pKa [2]
1 | Alanine racemase (not stated in the article (inferred: Geobacillus stearothermophilus, formerly Bacillus stearothermophilus)) | 7.4 | 
2 | Ketosteroid isomerase (3-oxo-Delta5-steroid isomerase) (not stated in the article (inferred: Comamonas testosteroni, formerly Pseudomonas testosteroni)) |  | 4.6
